Source: patent US12723078 (University of Texas, dated 2026)

Assays:
LILRB5 = molecular target: T1, LILRB5; experiment: ELISA
T1 construct: not the cell-surface form of MOLECULES; also called LILRB5 protein of the ELISA and Octet specificity tests; not shown: Fc or tag of the recombinant LILRB5 construct, if any

LILRB4 = molecular target: T2, LILRB4 (human, UniProt Q8NHJ6); experiment: ELISA
T2 construct: not the cell-surface form of MOLECULES; also called LILRB4 protein of the ELISA and Octet specificity tests

D3-Fc = molecular target: T3, D3-Fc (human, UniProt Q8NHL6); experiment: ELISA on LILRB1 domain-Fc fusion proteins
T3 construct: D3 domain; also called LILRB1 D3-Fc

D34SR-Fc = molecular target: T4, D34SR-Fc (human, UniProt Q8NHL6); experiment: ELISA on LILRB1 domain-Fc fusion proteins
T4 construct: D3-D4 and stalk region

D2-Fc = molecular target: T5, D2-Fc (human, UniProt Q8NHL6); experiment: ELISA on LILRB1 domain-Fc fusion proteins
T5 construct: D2 domain; also called LILRB1 D2-Fc

D23-Fc = molecular target: T6, D23-Fc (human, UniProt Q8NHL6); experiment: ELISA on LILRB1 domain-Fc fusion proteins
T6 construct: D2-D3

D234SR-Fc = molecular target: T7, D234SR-Fc (human, UniProt Q8NHL6); experiment: ELISA on LILRB1 domain-Fc fusion proteins
T7 construct: D2-D4 and stalk region

SR-Fc = molecular target: T8, SR-Fc (human, UniProt Q8NHL6); experiment: ELISA on LILRB1 domain-Fc fusion proteins
T8 construct: stalk region

D1-Fc = molecular target: T9, D1-Fc (human, UniProt Q8NHL6); experiment: ELISA on LILRB1 domain-Fc fusion proteins
T9 construct: D1 domain; also called LILRB1 D1-Fc

D4SR-Fc = molecular target: T10, D4SR-Fc (human, UniProt Q8NHL6); experiment: ELISA on LILRB1 domain-Fc fusion proteins
T10 construct: D4 and stalk region

[1] = molecular target: T11, recombinant human LILRB1 protein (human, UniProt Q8NHL6 24-461); experiment: Octet RED96 (BLI), antibody on protein G biosensors, recombinant LILRB1 in solution, FIG. 2E (not Table 14)
T11 construct: ELISA and Octet methods say only 'recombinant LILRB1'; also called recombinant LILRB1; LILRB1 recombinant proteins
T11 sequence (Q8NHL6 24-461 limits assumed): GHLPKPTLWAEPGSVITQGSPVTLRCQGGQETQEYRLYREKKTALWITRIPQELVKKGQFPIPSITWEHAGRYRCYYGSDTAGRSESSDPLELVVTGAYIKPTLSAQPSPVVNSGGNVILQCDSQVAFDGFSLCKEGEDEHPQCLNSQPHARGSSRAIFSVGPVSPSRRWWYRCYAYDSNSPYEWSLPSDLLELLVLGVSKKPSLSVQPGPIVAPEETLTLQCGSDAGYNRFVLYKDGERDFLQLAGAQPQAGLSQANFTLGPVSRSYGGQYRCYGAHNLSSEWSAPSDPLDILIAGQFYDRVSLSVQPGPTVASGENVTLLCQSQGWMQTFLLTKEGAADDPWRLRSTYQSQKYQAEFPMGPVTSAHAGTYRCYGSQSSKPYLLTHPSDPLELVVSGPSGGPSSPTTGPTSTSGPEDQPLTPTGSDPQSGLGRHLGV
Description: Following a short baseline in kinetics buffer for 20 s, the loaded biosensors were exposed to solutions of recombinant LILRB1 in a range of concentrations (0-500 nM). After background was subtracted, data was fit to a 1:1 binding model to extract an association rate ($kon$) and dissociation rate ($koff$). The KD was calculated using the ratio $koff/kon$. […] All experiments were performed with shaking at 1,000 rpm. All raw data was processed using ForteBio Octet Data Analysis Software 9.0.

T4 sequence (Q8NHL6 222-461 limits assumed): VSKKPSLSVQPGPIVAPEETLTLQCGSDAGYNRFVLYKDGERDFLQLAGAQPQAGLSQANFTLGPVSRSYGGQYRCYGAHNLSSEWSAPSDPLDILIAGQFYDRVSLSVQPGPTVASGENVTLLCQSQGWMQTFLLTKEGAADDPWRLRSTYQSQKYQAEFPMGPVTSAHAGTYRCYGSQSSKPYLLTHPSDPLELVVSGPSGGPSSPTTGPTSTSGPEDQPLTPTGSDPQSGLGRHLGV
T7 sequence (Q8NHL6 116-461 limits assumed): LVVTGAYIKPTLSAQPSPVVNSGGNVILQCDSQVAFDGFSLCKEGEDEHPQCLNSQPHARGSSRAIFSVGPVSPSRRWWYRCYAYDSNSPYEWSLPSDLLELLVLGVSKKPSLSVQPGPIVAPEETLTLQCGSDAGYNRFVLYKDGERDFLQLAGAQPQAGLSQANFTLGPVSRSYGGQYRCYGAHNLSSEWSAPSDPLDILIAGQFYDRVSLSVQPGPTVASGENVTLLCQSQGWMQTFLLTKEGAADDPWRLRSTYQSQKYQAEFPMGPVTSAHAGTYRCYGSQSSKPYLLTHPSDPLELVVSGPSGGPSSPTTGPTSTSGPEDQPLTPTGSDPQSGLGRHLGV
T1 sequence (chain, as listed by the source limits assumed): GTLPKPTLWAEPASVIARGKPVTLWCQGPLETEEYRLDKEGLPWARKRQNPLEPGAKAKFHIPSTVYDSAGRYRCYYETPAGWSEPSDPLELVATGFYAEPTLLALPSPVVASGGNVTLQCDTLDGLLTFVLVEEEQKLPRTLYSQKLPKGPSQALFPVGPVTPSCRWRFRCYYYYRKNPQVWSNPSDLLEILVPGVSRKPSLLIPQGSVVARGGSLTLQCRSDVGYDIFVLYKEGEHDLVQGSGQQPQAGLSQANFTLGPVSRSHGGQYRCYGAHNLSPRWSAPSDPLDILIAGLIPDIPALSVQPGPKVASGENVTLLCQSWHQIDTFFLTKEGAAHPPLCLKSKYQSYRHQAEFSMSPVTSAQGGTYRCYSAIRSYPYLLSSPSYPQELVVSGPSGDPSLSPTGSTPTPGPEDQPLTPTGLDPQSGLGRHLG
T3 sequence (Q8NHL6 222-312 limits assumed): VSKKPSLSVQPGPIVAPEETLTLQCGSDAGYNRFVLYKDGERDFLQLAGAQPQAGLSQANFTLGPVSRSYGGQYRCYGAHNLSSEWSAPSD
T10 sequence (Q8NHL6 313-461 limits assumed): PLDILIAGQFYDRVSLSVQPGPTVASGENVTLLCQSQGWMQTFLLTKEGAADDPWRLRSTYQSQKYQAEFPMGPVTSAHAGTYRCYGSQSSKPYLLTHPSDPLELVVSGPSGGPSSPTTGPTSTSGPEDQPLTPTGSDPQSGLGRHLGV
T5 sequence (Q8NHL6 116-221 limits assumed): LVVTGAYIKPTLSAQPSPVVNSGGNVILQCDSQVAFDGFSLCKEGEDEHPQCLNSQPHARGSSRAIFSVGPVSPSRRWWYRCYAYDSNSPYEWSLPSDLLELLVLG
T9 sequence (Q8NHL6 27-115 limits assumed): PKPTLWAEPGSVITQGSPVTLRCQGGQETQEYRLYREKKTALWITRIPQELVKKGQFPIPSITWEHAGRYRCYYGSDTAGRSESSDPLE
T8 sequence (Q8NHL6 410-461 limits assumed): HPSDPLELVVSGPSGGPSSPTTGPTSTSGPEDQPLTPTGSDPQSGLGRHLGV
T6 sequence (Q8NHL6 116-312 limits assumed): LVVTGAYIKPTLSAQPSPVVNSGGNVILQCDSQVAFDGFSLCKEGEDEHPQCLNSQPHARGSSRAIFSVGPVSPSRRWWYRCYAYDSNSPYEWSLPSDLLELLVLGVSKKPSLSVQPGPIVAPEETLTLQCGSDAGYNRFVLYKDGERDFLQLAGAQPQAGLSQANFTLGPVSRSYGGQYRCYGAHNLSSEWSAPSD

- binding result (D3-Fc): no binding (tested: not given)
- binding result (D34SR-Fc): no binding (tested: not given)
- binding result (D2-Fc): no binding (tested: not given)
- binding result (D23-Fc): no binding (tested: not given)
- binding result (D234SR-Fc): no binding (tested: not given)
- binding result (SR-Fc): no binding (tested: not given)
- binding result (D1-Fc): no binding (tested: not given)
- binding result (D4SR-Fc): no binding (tested: not given)
- Kd [1]: ~0.01 nM
B1: B1-176 rabbit antibody (antibody, V domains shown)
VH: QSLEESEGGLVKPGGTLTLTCTASGFSFSSSYCMCWVRQAPGKGLELIACIYTDSSGATYYASWAKGRFTISKSSSTTITLQMTSLTAADTATYFCARGWDYEDPGYTDTTYFSLWGPGTLVTVSS
VL: ELDLTQTPSSVEAAVGGTVTIKCQASQTIYTNLAWYQQKPGQPPNLLIYAASTLASGVSSRFKGSGSGTEFTLTISDLECADAATYYCQSYYGSSTTGNGFGGGTEVEIK
notes: Full-length rabbit IgG, kappa; Variable genes were cloned into a rabbit IgG expression vector and expressed in Expi293F cells
- binding result (LILRB5): no binding (tested: 10^3.0 ng/mL (1000 ng/mL))
- binding result (LILRB4): no binding (tested: 10^3.0 ng/mL (1000 ng/mL))
